The values below come from patent publication US20230034660A1, “PEPTIDES THAT ENHANCE NMDA RECEPTOR FUNCTION AND USE THEREOF” (University of Pittsburgh - Of the Commonwealth System of …, priority 2019, published 2023).

One test deals with NMDAR. In words: NMDAR EPSCs in DCN cartwheel cells in brain slices, ZX1 potentiation. Type of test: cell-based, mice. The note with it: nimodipine 20 μM at least 20 minutes prior to recordings; ZX1 100 μM.
A further test has as its target T1, GluN1/2A receptors (Rattus norvegicus, UniProt Q00959).
T1 construct: expressed in transfected cells; host or cells: human embryonic kidney tSA201 cells
In words: Zinc inhibition of glutamate-evoked currents in tSA201 cells transfected with GluN1/GluN2A. The format is cell-based. The note with it: vehicle, 1 mM glutamate steady-state current, read-out: IC50 for zinc block in vehicle treated cells. On the procedure: Human embryonic kidney tSA201 cells were maintained in DMEM supplemented with 10% fetal bovine serum and 1% GlutaMAX, as previously described (Glasgow and Johnson, 2014). Cells were plated in 35 mm petri dishes with three 15 mm glass coverslips treated with poly D-lysine (0.1 mg/ml) and rat-tail collagen (0.1 mg/ml) at a density of 1×10^5 cells/dish. Eighteen to 30 hours after plating, the cells were co-transfected using FuGENE 6 Transfection Reagent with cDNA encoding enhanced green fluorescent protein (eGFP), for identification of transfected cells, and WT rat NMDAR subunits GluN1-1a (GluN1; GenBank X63255) and GluN2A (GenBank M91561 in pcDNA1). GluN1-1 a and eGFP were expressed using a specialized pCl-neo vector with cDNA encoding eGFP inserted between the CMV promoter and the GluN1 open reading frame (Yi et al., 2018). […]
Whole-cell voltage-clamp recordings from tSA201 cells were performed 18-30 hours after transfection. […] Whole-cell currents were recorded using an Axopatch 200A patch-clamp amplifier (Molecular Devices), low-pass filtered at 5 kHz, and sampled at 20 kHz in pClamp10.7 (Molecular Devices). In all recordings from tSA201 cells, series resistance was compensated 85-90% and an empirically determined −6 mV liquid junction potential between the intracellular pipette solution and the extracellular recording solution was corrected. […]

For test [1], the target named is ZnT1 in mouse brain slices (mouse) (UniProt Q60738). As to the kind of experiment: cell-based or functional assay.
Test [2] addresses T2, GluN2A subunit of NMDAR in rat cortical cultures (rat, UniProt Q00959 23-1464).
T2 construct: whole, on cells; Endogenous protein in neurons, detected with a mouse anti-GluN2A antibody in the PLA
In words: proximity ligation assay in rat cortical cultures (FIG. 3A legend).

T2 sequence (Q00959 23-1464): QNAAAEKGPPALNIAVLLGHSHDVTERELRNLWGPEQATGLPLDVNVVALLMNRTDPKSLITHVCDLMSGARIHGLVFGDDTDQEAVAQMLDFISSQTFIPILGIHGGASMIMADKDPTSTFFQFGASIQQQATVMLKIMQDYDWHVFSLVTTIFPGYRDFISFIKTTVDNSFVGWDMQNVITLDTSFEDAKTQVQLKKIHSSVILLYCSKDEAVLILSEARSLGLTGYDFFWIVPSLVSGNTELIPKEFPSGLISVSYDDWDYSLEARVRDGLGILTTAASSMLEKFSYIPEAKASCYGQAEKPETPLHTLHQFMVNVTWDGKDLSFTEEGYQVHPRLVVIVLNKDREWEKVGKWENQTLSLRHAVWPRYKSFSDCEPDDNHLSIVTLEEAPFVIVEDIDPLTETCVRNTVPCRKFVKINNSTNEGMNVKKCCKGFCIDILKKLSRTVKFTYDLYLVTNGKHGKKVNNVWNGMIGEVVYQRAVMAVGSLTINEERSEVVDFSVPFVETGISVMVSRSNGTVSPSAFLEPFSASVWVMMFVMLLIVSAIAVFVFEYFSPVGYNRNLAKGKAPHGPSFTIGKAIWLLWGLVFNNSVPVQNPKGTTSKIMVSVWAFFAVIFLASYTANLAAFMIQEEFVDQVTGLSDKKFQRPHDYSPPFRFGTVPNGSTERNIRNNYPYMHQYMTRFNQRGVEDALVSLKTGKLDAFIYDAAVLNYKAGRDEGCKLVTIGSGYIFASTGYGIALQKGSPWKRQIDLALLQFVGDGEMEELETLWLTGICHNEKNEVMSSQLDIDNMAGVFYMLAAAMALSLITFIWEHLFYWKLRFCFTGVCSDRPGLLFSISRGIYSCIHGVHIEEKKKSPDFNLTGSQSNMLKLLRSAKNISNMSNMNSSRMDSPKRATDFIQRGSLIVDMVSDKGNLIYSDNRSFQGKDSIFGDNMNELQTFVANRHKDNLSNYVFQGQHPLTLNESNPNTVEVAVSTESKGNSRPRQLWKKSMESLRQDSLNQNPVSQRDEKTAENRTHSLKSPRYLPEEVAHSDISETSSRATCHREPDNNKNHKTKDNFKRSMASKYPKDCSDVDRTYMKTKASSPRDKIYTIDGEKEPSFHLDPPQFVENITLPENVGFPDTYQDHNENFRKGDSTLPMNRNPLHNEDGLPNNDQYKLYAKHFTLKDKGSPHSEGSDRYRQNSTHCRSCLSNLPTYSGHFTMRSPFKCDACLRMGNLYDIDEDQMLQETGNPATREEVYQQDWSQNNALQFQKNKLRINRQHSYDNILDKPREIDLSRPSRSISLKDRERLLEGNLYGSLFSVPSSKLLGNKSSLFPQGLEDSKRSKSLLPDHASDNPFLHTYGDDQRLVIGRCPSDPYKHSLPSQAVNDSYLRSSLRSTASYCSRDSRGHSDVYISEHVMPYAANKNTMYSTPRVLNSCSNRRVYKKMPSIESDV
T1 sequence (Q00959 23-1464, other chains not shown): as the sequence (Q00959 23-1464) above

Turning to `COCCOC(=O)C1=C(C)NC(C)=C(C(=O)OC(C)C)C1c1cccc([N+](=O)[O-])c1` (centres unmarked) [Nimodipine, reference compound], the “ZX1 potentiation of NMDAR EPSCs in nimodipine-treated slices” value in the test on NMDAR stood at 23.6±6.9%.
As a reminder, the IC50 is the point on the concentration scale where inhibition reaches its midpoint. For the molecule `[Zn+2]` [zinc], the half-inhibitory concentration (IC50) at GluN1/2A receptors was found to be 21.8 ± 2.09 nM.
On to “GluN2A subunit of NMDAR in mouse brain slices (from UniProt P35436 23-1464) (receptor)”, for which, in test [1], the Average effect of ZX1 on L2/3 PN NMDAR Lev-EPSCs amplitudes normalized to control, auditory cortex slices incubated with scramble worked out at 159%; the Average effect of ZX1 on L2/3 PN NMDAR Lev-EPSCs amplitudes normalized to control, auditory cortex slices incubated with the peptide was determined as 99%; the ZX1 potentiation of NMDAR EPSCs, DCN cartwheel cells, 100 Hz, slices treated with N2AZ was determined as 1.95%; the ZX1 potentiation of NMDAR-mediated synaptic currents, DCN cartwheel cells, 20 Hz, slices treated with N2AZ (3 µM) is 19.4%. Also, in test [1], the ZX1 potentiation of NMDAR-mediated synaptic currents, DCN cartwheel cells, 20 Hz, slices treated with scN2AZ (3 µM) worked out at 47.3%.

B1: ZnT1 in rat cortical cultures (other, UniProt Q62720 1-507, looked up)
chain: MGCWGRNRGRLLCMLLLTFMFMVLEVVVSRVTASLAMLSDSFHMLSDVLALVVALVAERFARRTHATQKNTFGWIRAEVMGALVNAIFLTGLCFAILLEAVERFIEPHEMQQPLVVLSVGVAGLLVNVLGLCLFHHHSGEGQGAGHGHSHGHGHGHLAKGARKAGRAGGEAGAPPGRAPDQEPDQEETNTLVANTSNSNGLKADQAEPEKLRSDDPVDVQVNGNLIQESDSLESEDNRAGQLNMRGVFLHVLGDALGSVIVVVNALVFYFSWKGCTEDDFCVNPCFPDPCKSSVELMNSTQAPMHEAGPCWVLYLDPTLCIIMVCILLYTTYPLLKESALILLQTVPKQIDIKHLVKELRDVEGVEEVHELHVWQLAGSRIIATAHIKCEDPASYMQVAKTIKDVFHNHGIHATTIQPEFASVGSKSSVVPCELACRTQCALKQCCGTRPQVHSGKEAEKAPTVSISCLELSENLEKKPRRTKAEGSVPAVVIEIKNVPNKQPESSL
notes: whole, on cells; Endogenous protein in neurons, detected with a rabbit anti-ZnT1 antibody in the PLA; also called zinc transporter 1
As for B1, the binding result in test [2] is recorded as “binds”.
